Assay results published in patent US7514594B2, “Transgenic animal model of bone mass modulation” (Wyeth, priority 2003, dated 2009).

Experiments:
[1] = tested on: LRP5-mediated Wnt signaling; test: Dkk-1 repression of LRP5-mediated Wnt signaling; assay type: cell-based
Source text: (§1) 1, 2002, and 60/361,293 filed Mar. 4, 2002. This observation is of particular interest because the HBM mutation in LRP5 is a gain of function or activation mutation. That is, Wnt signaling, via the canonical pathway, is enhanced with HBM versus LRP5. Not wishing to be bound by theory, it is believed that this interaction provides an explanation of the developmental signaling differences between HBM and the more common LRP5/LRP6.

[2] = tested on: HBM-mediated Wnt signaling; test: Dkk-1 repression of HBM-mediated Wnt signaling; assay type: cell-based; details: compared with LRP5-mediated signaling
Source text: as §1

[3] = molecular target: LRP5 (Homo sapiens, UniProt O75197); test: Dkk-1 binding to LRP5; details: observed by the inventors
Sequence of LRP5 (O75197 32-1615): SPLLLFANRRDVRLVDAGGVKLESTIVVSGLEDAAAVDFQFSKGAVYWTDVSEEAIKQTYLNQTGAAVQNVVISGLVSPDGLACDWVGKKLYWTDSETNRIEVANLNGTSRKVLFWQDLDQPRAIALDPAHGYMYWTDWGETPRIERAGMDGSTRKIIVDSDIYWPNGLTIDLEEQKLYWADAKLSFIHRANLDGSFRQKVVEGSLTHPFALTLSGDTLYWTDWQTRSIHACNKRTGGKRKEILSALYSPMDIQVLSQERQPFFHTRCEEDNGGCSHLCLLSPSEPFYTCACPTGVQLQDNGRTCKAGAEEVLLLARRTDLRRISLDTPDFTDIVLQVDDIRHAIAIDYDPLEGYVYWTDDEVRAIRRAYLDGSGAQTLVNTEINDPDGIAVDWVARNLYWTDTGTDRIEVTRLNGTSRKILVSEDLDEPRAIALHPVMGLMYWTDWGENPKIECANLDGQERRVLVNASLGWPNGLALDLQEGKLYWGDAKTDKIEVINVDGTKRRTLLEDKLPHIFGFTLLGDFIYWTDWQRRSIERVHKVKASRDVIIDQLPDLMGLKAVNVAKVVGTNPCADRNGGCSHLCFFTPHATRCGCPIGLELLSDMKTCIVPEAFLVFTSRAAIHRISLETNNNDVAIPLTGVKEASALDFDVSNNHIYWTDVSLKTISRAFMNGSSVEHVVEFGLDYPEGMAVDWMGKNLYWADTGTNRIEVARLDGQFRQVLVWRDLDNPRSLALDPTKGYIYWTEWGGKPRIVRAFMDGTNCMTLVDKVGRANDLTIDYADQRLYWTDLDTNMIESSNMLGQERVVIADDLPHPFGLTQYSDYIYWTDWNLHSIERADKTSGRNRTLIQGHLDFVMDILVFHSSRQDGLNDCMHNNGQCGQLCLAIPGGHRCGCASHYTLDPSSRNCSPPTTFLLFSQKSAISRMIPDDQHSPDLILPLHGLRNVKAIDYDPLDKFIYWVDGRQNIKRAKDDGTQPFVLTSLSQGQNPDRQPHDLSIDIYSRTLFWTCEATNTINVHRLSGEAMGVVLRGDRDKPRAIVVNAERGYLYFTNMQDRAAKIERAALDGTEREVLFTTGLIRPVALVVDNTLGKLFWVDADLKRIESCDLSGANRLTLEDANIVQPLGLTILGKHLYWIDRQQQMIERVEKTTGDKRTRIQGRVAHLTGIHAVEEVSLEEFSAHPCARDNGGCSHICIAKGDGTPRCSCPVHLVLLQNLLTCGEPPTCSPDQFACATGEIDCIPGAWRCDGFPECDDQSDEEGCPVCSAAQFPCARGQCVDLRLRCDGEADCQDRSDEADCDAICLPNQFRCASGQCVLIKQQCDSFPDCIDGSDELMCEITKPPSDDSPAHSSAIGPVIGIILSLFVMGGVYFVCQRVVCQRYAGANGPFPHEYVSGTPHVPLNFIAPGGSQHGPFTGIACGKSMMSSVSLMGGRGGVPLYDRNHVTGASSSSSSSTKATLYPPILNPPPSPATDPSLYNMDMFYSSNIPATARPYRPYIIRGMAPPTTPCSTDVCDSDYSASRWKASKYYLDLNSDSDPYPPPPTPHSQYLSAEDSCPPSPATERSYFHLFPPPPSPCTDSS
Source text: 1, 2002, and 60/361,293 filed Mar. 4, 2002. The two-hybrid screen is a common procedure in the art, which is described, for example, by Gietz et al., Mol. Cell. Biochem. 172:67-79 (1997); Young, Biol. Reprod. 58:302-11 (1998); Brent and Finley, Ann. Rev. Genet. 31:663-704 (1997); and Lu and Hannon, eds., Yeast Hybrid Technologies, Eaton Publishing, Natick Mass., (2000).
(§2) It may be that the reduced effectiveness of Dkk inhibition of LRP5 which is observed for HBM is not necessarily mediated by enhancing or preventing the binding of Dkk to LRP5/LRP6/HBM. More than one mechanism may be involved. […] Further, it has been observed that different members of the Dkk family differentially affect LRP5/LRP6/HBM activity. Rather, the more preferred approach is to develop a drug or therapy which results in the desired protective benefits by reproducing as nearly as possible the subtle effect of HBM. The ability to refine and test potential drugs and therapies by comparing their effects to an animal model of HBM is among the major features of the present invention.

[4] = molecular target: T1, LRP6 (Homo sapiens, UniProt O75581); test: Dkk-1 binding to LRP6; details: observed by the inventors
T1 sequence (O75581 20-1613, species assumed): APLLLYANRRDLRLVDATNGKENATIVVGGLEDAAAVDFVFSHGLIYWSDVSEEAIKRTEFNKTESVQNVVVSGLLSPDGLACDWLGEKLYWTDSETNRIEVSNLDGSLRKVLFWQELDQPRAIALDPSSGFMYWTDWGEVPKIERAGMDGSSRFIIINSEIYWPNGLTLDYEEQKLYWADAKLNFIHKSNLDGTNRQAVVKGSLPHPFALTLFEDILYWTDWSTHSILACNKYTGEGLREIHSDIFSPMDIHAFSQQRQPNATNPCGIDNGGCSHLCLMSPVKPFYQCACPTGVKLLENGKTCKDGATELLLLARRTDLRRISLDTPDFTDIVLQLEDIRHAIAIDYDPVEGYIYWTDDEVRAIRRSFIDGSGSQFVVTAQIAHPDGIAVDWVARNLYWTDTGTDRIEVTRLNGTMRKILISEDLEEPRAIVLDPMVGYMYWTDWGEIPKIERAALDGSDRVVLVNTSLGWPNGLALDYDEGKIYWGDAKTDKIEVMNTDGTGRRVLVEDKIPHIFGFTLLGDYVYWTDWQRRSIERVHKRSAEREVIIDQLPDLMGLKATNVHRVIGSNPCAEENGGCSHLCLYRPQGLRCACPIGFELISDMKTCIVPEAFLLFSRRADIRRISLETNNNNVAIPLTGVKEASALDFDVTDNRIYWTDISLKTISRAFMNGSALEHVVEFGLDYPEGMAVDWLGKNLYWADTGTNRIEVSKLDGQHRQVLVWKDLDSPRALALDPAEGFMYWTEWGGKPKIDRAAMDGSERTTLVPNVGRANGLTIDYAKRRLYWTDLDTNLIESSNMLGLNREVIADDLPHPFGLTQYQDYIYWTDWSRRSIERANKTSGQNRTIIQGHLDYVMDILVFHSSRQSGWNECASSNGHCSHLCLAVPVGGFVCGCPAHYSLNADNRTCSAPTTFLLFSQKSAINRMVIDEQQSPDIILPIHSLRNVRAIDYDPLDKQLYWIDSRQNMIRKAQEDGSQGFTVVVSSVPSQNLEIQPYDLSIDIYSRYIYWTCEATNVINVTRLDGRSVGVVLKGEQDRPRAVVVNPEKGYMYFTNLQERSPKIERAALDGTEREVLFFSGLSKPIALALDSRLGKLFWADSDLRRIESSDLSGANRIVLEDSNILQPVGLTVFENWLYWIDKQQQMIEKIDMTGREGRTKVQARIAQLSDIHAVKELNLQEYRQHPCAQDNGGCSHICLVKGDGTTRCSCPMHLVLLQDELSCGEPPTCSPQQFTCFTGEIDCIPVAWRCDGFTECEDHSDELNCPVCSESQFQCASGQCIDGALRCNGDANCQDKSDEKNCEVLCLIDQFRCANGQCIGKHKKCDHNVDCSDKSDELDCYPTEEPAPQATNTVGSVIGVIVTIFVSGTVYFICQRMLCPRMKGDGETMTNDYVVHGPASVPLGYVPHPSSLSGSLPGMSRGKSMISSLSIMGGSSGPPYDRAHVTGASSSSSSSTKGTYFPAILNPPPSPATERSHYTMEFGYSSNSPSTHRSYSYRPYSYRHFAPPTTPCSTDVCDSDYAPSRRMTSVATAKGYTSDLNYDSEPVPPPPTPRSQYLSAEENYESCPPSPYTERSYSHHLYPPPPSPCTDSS
Source text: as §2

[5] = molecular target: HBM (Homo sapiens, UniProt O75197, G171V); test: Dkk-1 binding to HBM; details: observed by the inventors
Sequence of HBM (O75197 32-1615 G171V): as the sequence (O75197 32-1615) above, with G140V counted along it
Source text: as §2

[6] = tested on: canonical Wnt signaling; details: cited from earlier work
[7] = tested on: Wnt pathway; test: Xenopus embryo assay of Wnt pathway stimulation; assay type: in vivo; details: for stimulation of the Wnt pathway: in combination with Wnt5a
Source text: Axin was also identified from the two hybrid experiments. This protein is involved in inhibition of the Wnt signaling pathway and interacts with the tumor suppressor APC. There is a link here with the focal adhesion signaling described above: one common step in the two pathways involves inhibition of glycogen synthase kinase 3, which in turn results in the activation of β-catenin/Lef-1 and AP-1 transcription factors. Axin/APC are involved in this as well as integrin linked kinase. The Wnt pathway has a role in determining cell fates during embryogenesis. If inappropriately activated, the Wnt pathway may also lead to cancer. The Wnt pathway also seems to have a role in cytoskeletal rearrangements. […] A model depicting LRP5 involvement in focal adhesion signaling is depicted in FIG. 15.

[8] = tested on: ovariectomized het and ntg mice; test: ovx-induced osteopenia in het and ntg mice treated with 17β-estradiol; assay type: in vivo, mouse; details: both het and ntg; ovariectomized at 9 weeks; 10 μg/kg/day 17β-estradiol for 35 days
Procedure: To determine whether the mutation had any effect on ovx-induced osteopenia, het and ntg mice were ovariectomized at 9 weeks of age and treated for 35 days with vehicle or 10 μg/kg/day 17β-estradiol (E2). The percent change in total, trabecular and cortical density in het and ntg ovx mice from those values in their respective sham operated controls were determined. […] Ovariectomy induced a 14.3% decrease in total BMD (696±6 to 597±7 mg/cm^3) and a 26.3% decrease in trabecular BMD (445±9 to 328±7 mg/cm^3) in the het group and a 14.9% decrease in total BMD (470±10 to 400±7 mg/cm^3) and 37.6% decrease in trabecular BMD (132±4 to 82±2 mg/cm^3) in the ntg group.

[9] = molecular target: T1, LRP6; details: Semenov et al.; cited from earlier work
[10] = tested on: LRP5 G171V transgenic (het) and non-transgenic littermate (ntg) mice; test: hPTH treatment of LRP5 G171V transgenic and non-transgenic mice, femoral density by pQCT; assay type: in vivo, mouse; details: for Percent Change in Bone Mass Density After 30 Days of hPTH Treatment, cortical, ntg / Percent Change in Bone Mass Density After 30 Days of hPTH Treatment, cortical, transgenic / Percent Change in Bone Mass Density After 30 Days of hPTH Treatment, total, ntg / Percent Change in Bone Mass Density After 30 Days of hPTH Treatment, total, transgenic / Percent Change in Bone Mass Density After 30 Days of hPTH Treatment, trabecular, ntg / Percent Change in Bone Mass Density After 30 Days of hPTH Treatment, trabecular, transgenic: left femur pQCT, vs vehicle controls
Procedure: In order to further examine increases in bone density that were detected in select transgenic lines through monitoring of the animals by non-invasive bone imaging, necropsies were performed on animals of these lines at 5 and 9 weeks of age for direct bone densitometric and histologic analysis. The left femur was isolated, cleaned and positioned in an XCT Research peripheral Quantitative Computed Tomograph (pQCT; Stradtec Medizintechnik, Pforzheim, Germany). The distal end of the femur was located and pQCT scanning was initiated 2.5 mm proximal from this point for total and trabecular measurements. The pQCT scan for cortical measurements was initiated 3.5 mm proximal from the first scan (i.e., 6 mm proximal from the distal end). […] The soft tissue was automatically removed using an iterative algorithm, and the density of the remaining bone (total density) in the first slice was determined. The outer 55% of the bone was then peeled away in a concentric spiral and the density of the remaining bone (trabecular density) of the first slice was reported in mg/cm^3. In the second slice, the boundary between cortical and trabecular bone was determined using an iterative algorithm, and the density of the cortical bone was determined.
[…] Total, trabecular and cortical densities were measured in excised left femur by pQCT. PTH response was normalized to the bone densities of the vehicle group and expressed as percent change from their respective vehicle controls.

[11] = molecular target: T1, LRP6; details: Mao et al.; cited from earlier work
[12] = extracellular domains, absence of Wnt5a
[13] = ntg animals, treatment with PTH

Question: With “Dkk-1: protein dickkopf-1, an antagonist of the Wnt pathway” as the molecule, how does the “repression of LRP5-mediated Wnt signaling” value [1] read?
Answer: able to repress

Question: What about the “repression of HBM-mediated Wnt signaling” value [2] of the same molecule?
Answer: less effective

Question: And the “binding to LRP5” value [3]?
Answer: binds

Question: What about the “binding to LRP6” value [4] of the same molecule?
Answer: binds

Question: And the “binding to HBM” value [5]?
Answer: binds

Question: And the “canonical Wnt signaling” value ([6]; Bafico et al., Dkk-1 added at extremely low concentrations (30 pM))?
Answer: repression

Question: For “LRP5: wild-type LRP5 protein (SEQ ID NO: 3)”, which “stimulation of the Wnt pathway” value [7] is on record?
Answer: modestly above the control

Question: With “HBM: protein identical to LRP5 except for an alteration of glycine 171 to valine” as the molecule, how does the “stimulation of the Wnt pathway” value [7] read?
Answer: much greater extent

Question: With `C[C@]12CC[C@@H]3c4ccc(O)cc4CC[C@H]3[C@@H]1CC[C@@H]2O` [E2, 17β-estradiol] as the molecule, how does the ovx-induced bone loss [8] read?
Answer: completely prevented

Question: With “LRP5 ECD: extracellular domain (ECD) of LRP5” as the molecule, how does the “stimulation of Wnt signaling” value [7, 12] read?
Answer: modest stimulation

B1: Dkk-1 mutant having cysteine 220 changed to alanine: Dkk-1 mutant having cysteine 220 changed to alanine (protein, UniProt O94907 32-266, looked up, variant C220A)
Dickkopf-related protein 1: TLNSVLNSNAIKNLPPPLGGAAGHPGSAVSAAPGILYPGGNKYQTIDNYQPYPCAEDEECGTDEYCASPTRGGDAGVQICLACRKRRKRCMRHAMCCPGNYCKNGICVSSDQNHFRGEIEETITESFGNDHSTLDGYSRRTTLSSKMYHTKGQEGSVCLRSSDCASGLCCARHFWSKICKPVLKEGQVATKHRRKGSHGLEIFQRCYCGEGLSCRIQKDHHQASNSSRLHTCQRH
Question: Which LRP6 binding [9] does the source give for B1 here?
Answer: abolished

Question: And the “repression of Wnt signaling” value ([6]; Semenov et al.)?
Answer: unable to repress

B2: human parathyroid hormone (peptide, UniProt P01270 32-115, looked up)
Parathyroid hormone: SVSEIQLMHNLGKHLNSMERVEWLRKKLQDVHNFVALGAPLAPRDAGSQRPRKKEDNVLVESHEKSLGEADKADVNVLTKAKSQ
modifications: Parathyroid hormone
notes: human parathyroid hormone (hPTH), anabolic agent
Question: What does the source list for B2?
Answer: Percent Change in Bone Mass Density After 30 Days of hPTH Treatment, cortical, ntg ([10]; Female): 4%; Percent Change in Bone Mass Density After 30 Days of hPTH Treatment, cortical, transgenic ([10]; Female): −1%; Percent Change in Bone Mass Density After 30 Days of hPTH Treatment, total, ntg ([10]; Female): 18%; Percent Change in Bone Mass Density After 30 Days of hPTH Treatment, total, transgenic ([10]; Female): 30%; Percent Change in Bone Mass Density After 30 Days of hPTH Treatment, trabecular, ntg ([10]; Female): −3%; Percent Change in Bone Mass Density After 30 Days of hPTH Treatment, trabecular, transgenic ([10]; Female): 59%; Percent Change in Bone Mass Density After 30 Days of hPTH Treatment, cortical, ntg ([10]; Male, hPTH 100 mg/kg/day sc): 3%; Percent Change in Bone Mass Density After 30 Days of hPTH Treatment, cortical, transgenic ([10]; Male, hPTH 100 mg/kg/day sc): 2%; Percent Change in Bone Mass Density After 30 Days of hPTH Treatment, total, ntg ([10]; Male, hPTH 100 mg/kg/day sc): 23%; Percent Change in Bone Mass Density After 30 Days of hPTH Treatment, total, transgenic ([10]; Male, hPTH 100 mg/kg/day sc): 37%; Percent Change in Bone Mass Density After 30 Days of hPTH Treatment, trabecular, ntg ([10]; Male, hPTH 100 mg/kg/day sc): 5%; Percent Change in Bone Mass Density After 30 Days of hPTH Treatment, trabecular, transgenic ([10]; Male, hPTH 100 mg/kg/day sc): 80%; total femoral BMD ([10]; both het and ntg, treatment with PTH): significant increase; trabecular bone compartment ([10]; het animals, treatment with PTH): increase; cortical bone [10, 13]: significant increase; trabecular BMD [10, 13]: no changes

B3: Dkk-2: Dkk family protein found to directly bind LRP6 (protein, UniProt Q9UBU2 34-259, looked up)
Dickkopf-related protein 2: KLNSIKSSLGGETPGQAANRSAGMYQGLAFGGSKKGKNLGQAYPCSSDKECEVGRYCHSPHQGSSACMVCRRKKKRCHRDGMCCPSTRCNNGICIPVTESILTPHIPALDGTRHRDRNHGHYSNHDLGWQNLGRPHTKMSHIKGHEGDPCLRSSDCIEGFCCARHFWTKICKPVLHQGEVCTKQRKKGSHGLEIFQRCDCAKGLSCKVWKDATYSSKARLHVCQKI
Question: For B3, which Kd [11] is on record?
Answer: 0.73 nM

B4: HBM ECD: extracellular domain (ECD) of HBM (protein, UniProt O75197 32-1384, looked up, variant G171V)
extracellular domain: SPLLLFANRRDVRLVDAGGVKLESTIVVSGLEDAAAVDFQFSKGAVYWTDVSEEAIKQTYLNQTGAAVQNVVISGLVSPDGLACDWVGKKLYWTDSETNRIEVANLNGTSRKVLFWQDLDQPRAIALDPAHGYMYWTDWVETPRIERAGMDGSTRKIIVDSDIYWPNGLTIDLEEQKLYWADAKLSFIHRANLDGSFRQKVVEGSLTHPFALTLSGDTLYWTDWQTRSIHACNKRTGGKRKEILSALYSPMDIQVLSQERQPFFHTRCEEDNGGCSHLCLLSPSEPFYTCACPTGVQLQDNGRTCKAGAEEVLLLARRTDLRRISLDTPDFTDIVLQVDDIRHAIAIDYDPLEGYVYWTDDEVRAIRRAYLDGSGAQTLVNTEINDPDGIAVDWVARNLYWTDTGTDRIEVTRLNGTSRKILVSEDLDEPRAIALHPVMGLMYWTDWGENPKIECANLDGQERRVLVNASLGWPNGLALDLQEGKLYWGDAKTDKIEVINVDGTKRRTLLEDKLPHIFGFTLLGDFIYWTDWQRRSIERVHKVKASRDVIIDQLPDLMGLKAVNVAKVVGTNPCADRNGGCSHLCFFTPHATRCGCPIGLELLSDMKTCIVPEAFLVFTSRAAIHRISLETNNNDVAIPLTGVKEASALDFDVSNNHIYWTDVSLKTISRAFMNGSSVEHVVEFGLDYPEGMAVDWMGKNLYWADTGTNRIEVARLDGQFRQVLVWRDLDNPRSLALDPTKGYIYWTEWGGKPRIVRAFMDGTNCMTLVDKVGRANDLTIDYADQRLYWTDLDTNMIESSNMLGQERVVIADDLPHPFGLTQYSDYIYWTDWNLHSIERADKTSGRNRTLIQGHLDFVMDILVFHSSRQDGLNDCMHNNGQCGQLCLAIPGGHRCGCASHYTLDPSSRNCSPPTTFLLFSQKSAISRMIPDDQHSPDLILPLHGLRNVKAIDYDPLDKFIYWVDGRQNIKRAKDDGTQPFVLTSLSQGQNPDRQPHDLSIDIYSRTLFWTCEATNTINVHRLSGEAMGVVLRGDRDKPRAIVVNAERGYLYFTNMQDRAAKIERAALDGTEREVLFTTGLIRPVALVVDNTLGKLFWVDADLKRIESCDLSGANRLTLEDANIVQPLGLTILGKHLYWIDRQQQMIERVEKTTGDKRTRIQGRVAHLTGIHAVEEVSLEEFSAHPCARDNGGCSHICIAKGDGTPRCSCPVHLVLLQNLLTCGEPPTCSPDQFACATGEIDCIPGAWRCDGFPECDDQSDEEGCPVCSAAQFPCARGQCVDLRLRCDGEADCQDRSDEADCDAICLPNQFRCASGQCVLIKQQCDSFPDCIDGSDELMCEITKPPSDDSPAHS
modifications: extracellular domain
Question: Which “stimulation of Wnt signaling” value ([7]; extracellular domain, presence of Wnt5a) does the source give for B4 here?
Answer: slightly increased

Question: What about the “stimulation of Wnt signaling” value [7, 12] of the same molecule?
Answer: modest stimulation
